Source: the DeepSol protein solubility set

experiment: soluble on expression in E. coli; label from the status in PepcDB or PDB records

Row | Sequence | soluble on expression in E. coli
1 | MYKILRTEKSWIEGSAVEQVKKLASLKGVENVIGYPDLHPGKTPIGISIITKDVIYPHLIGNDIGCSISLFETSELKRKFKVEKVMKTLQNSDLKNEIKKDFNLGTIGGGNHFAEFTLVDKILDESETTNFDKNKVYLLVHSGSRGLGEEILRKYIDYYSCQNGLAVNSEGFNNYISDYKKAVVFAKENRQLIAKNLCQLLNLKAFDLKIEAIHNGLELREDYIIHRKGAATALNKYVVIAGSRGDYSYIVKPINSSLETGFSIAHGAGRKWKRSGCKEKLQGKFSKKAIRNRSFSYNLICSNTNLVYEEAPEAYKNIDRVIDDLLSFNLIKVVARLKPLITYKDLEHHHHHH | not soluble
2 | MYLTIKSIMLLRKYLLVTESQVSKCGFHIVKKKGDVLYPKRTKYSKYRKGRCSRGCKPDGTKLGFGRYGTKSCKAGRLSYRAIEAARRAIIGHFHRAMSGQFRRNGKIWVRVFADLPITGKPTEVRMGRGKGNPTGWIARVSTGQIPFEMDGVSLANARQAATLAAHKPCSSTKFVQWSLEHHHHHH | not soluble
3 | MYNALYLYCSEYKYEDSIMTISIRLPSDLETRLNNLAAKTGRTKSFYLREIIERGIEEAEDYYLASQVRERVRKGEGTFYSSEEVRKELGLDD | not soluble
4 | MYNDEELITVQPEAFKALTPSKKFNETSNKLLDLAYSDDGNNLIVSAEDVVLVYDLRDGSKGKSIECKKYGVNCLEYLDTVKCVHSGPNDTTIRLLHLQKKSYVRYFDGHRMPVNFIRTNPKDREKFLSSSVDGEIRMFDTRTFENYGCLLAGHTPLIAFDPDGILFAVATKSDTIKLFDMRSFDLGPFQSFIITKTDNDEWSDIEFSPCGKFILISTTAGSVKWIDAFDGTLIHSFSQHKNPNVSFF | not soluble
5 | MYRPKDHGWVEVIVGPMYSGKSEELIRRIRRAKIAKQKIQVFKPEIDNRYSKEDVVSHMGEKEQAVAIKNSREILKYFEEDTEVIAIDEVQFFDDEIVEIVNKIAESGRRVICAGLDMDFRGKPFGPIPELMAIAEFVDKIQAICVVCGNPATRTQRLINGKPAFYDDPVVLIGAMESYEARCRKCHVVPQKKEVMAGDPLEHHHHHH | soluble
6 | MYSERPPLDPHPLSPYMAWTGYRNRDAILDVLKGVFPRDKSDVLEFAAGSGMHAHYFAQHFAHLTFHPSDSDEDLLPHIEERTRQSGLSNVARPRRLDLTQPETWPAGEKFHAIYCINVCQVAPVSIVGGIMACSSRILADGGFLFIYGPFLDYGRFASDFDEEFDRLLRSTGEEGWSLKDIAELDRAAGRHGMRLDDEIDMPSNDFALIYRRA | not soluble
7 | MYTEYQPSRLLAPYIDNYWEFKGTPEYGMRIHILPDGCTDFIFTLGEAVSKVKEETLVMQPYRSYFVGPMTKYSELVTYAEFVHQFGVRFLPCGLSGFTKLPLHEFANYRISTNEMQAVFDSTFIERLCEQNDVRGRIQVVEEYLLAYLAHNYQPVDTQVAAAVNIINQSAGKRSVRSLMDEVCLCQRHFERKFKHNTGFTPKEYSRIVKFKNAVELLRNTTSVNLLTTAIDAGYYDLAHFSKEIKTLSGNTPSSFLSLTVPEDITLTYIEP | soluble
8 | MYTIAALYHFTRFADPADLKPALLDLCLAQGVKGTLLLAKEGINGTIAGPRAGIDAVLAHIRALPGCSDLEWKEATSDHPPFGKMKVRLKQEIVTMGQPDVDPRARVGHYVEPEDWNDLIRSDDVVLIDTRNDYEVAIGTFEGAIDPMTESFRDFPAWWEANKERFHNKRVAMFCTGGIRCEKSTNYLLGQGVEDVYHLKGGILRYLEEVPAENSTWQGECFVFDNRVSVGHGLVEGPHELCHGCRRPILPEDRNRPEYEHGVSCHLCIDETSEADKMRFRERQKQIALARARGEDHLATHLEHHHHHH | soluble
9 | MYWERGLHMYKASAVVPTGYVRVGNTAPLVGEDTQRYASFWGDGYDVYRQLRWQQIPEKQRKAFKKAAKSKKTVMFAGREYGISKQNLSDVWDDFEDAMELKAFPCLSSLFLTKWHKNLYDSGLTKTSTALPRLSSKRTIL | not soluble
10 | NELSQERTARLNELQRALVMMDSDFRQIALRQTRTNGEEPSKKLLHWADYLLDSDNKGIMFARLGWHNPQQQFPRGEVTKVGYRIKDERLERVWWRYPDTPAGQEGVVTPLLSDVEELNVRFYDGKQWINEWSNELTLPAAISVELTLKDYGKIARTYLTPEGN | soluble
11 | NENNTVVAETKTSTASETSEPKQVISSKQQLASLYLQAKQSLFKQRALSATMYGLSQKDIGQVISSDMEFYSPENEKQLRAELLSISNTIAGIKLDDADITTKNNQQVMAGLTRYFAGEPNFNIGYIDTWMGLSPFIVNQINGPLIDIPRVMQNDQPITTEKEALDYIVRLGQFDKLAATIIEKQTADAAQNWLPSKVTLQGAIKYLKGFTSGSAEQHPFVNVFREKIEKVDSLTTEQKQSLITQVIAKVSQVVYPAYQSVEKASEQLLSEARSESGIWAQPKGSVYYQDAIKQLGDSELSPTQIHQIGLDEVARISGVMNEILLAQGYTKGTVGERMVALNEEPRFLYEDSIAGREELLSDINGYITEVTAKMAPVFRTTPSYQVEVKSFPVEVQDGAPGGQYTSPAVDGSKPGIYWINLRDMKANPKFGLKTLTYHEANPGHHWQIALNLDQAELPFLRRIAPYNAYTEGWALYSEQVAYELGMYENDPFGDLGRLQAELFRAVRLVVDTGLHDKRWTREQAISYMSEQTGTAESDVVAEIERYMAWPGQALGYKLGMLKILSLREQAKARLGDKFDLAEFHDVVLLNGAVPMAVLSRNVNHWLDNK | soluble
12 | NEVESGYYFTTLDHYIYEAEEANLGPGVVVVERQYIQDRIPSWTGPGFVRVPEGAYLEFFIDNIPYSMEYEILIRYEPQLPDHWEKAVITVQRPGKIPASSRCGNTVPDDDNQVVSLSPGSRYVVLPRPVCFEKGMNYTVRLELPQYTASGSDVESPYTFIDSLVLMPYCKSLDIFTVGGSGDGEVTNSAWETFQRYRCLENSRSVVKTPMTDVCRNIIFSISALIHQTGL | soluble
13 | NGQSDVKHIGILQYVEHPSLTATRKGFIKELAKEGYKDGKNIKIEYKNAQGDQSNIQSISEKLIKDNKLVLGIATPAAQSLTTVSTETPILFTAVTDPVSAELVKSMKKPEGLATGTSDMSPIKKQVSLLRKVMPKVKRVGIMYTTSERNSEVQVKQAKKIFQEAGIKTSVKGISSTNDVQDTAKSLMSKTEVIFVPTDNIIASSVTLLGNLSKELKVPVVGGSADMVPSGLLFSYGADYEALGRQTARQAVKILKGKDVAKVPSEYPQNLKVVVNEDMAKELGIDVSSIK | not soluble
14 | NIDGYNELTVGELTGPTTIETFPTPDLPGGLAGGVSWGPDAERFAVSVTGRTVNTNVFVVETETGESEQWTAASTAGIPQETLIEPEVVRFDSFDGREIPALFSPPDGAADGAGADGDTPVIVDIHGGPESQRRPSFSGLTQYFLSRGYAVFEPNVRGSTGYGKAYTHLDDVEKRMDSVKDLRAGVDWLHNHPAVDPDRIVAMGGSYGGFMVLAALTEYPDLWAAGVDVVGIANFVTFLENTGDWRRELREAEYGSLDTDREFLESISPINNVDRINAPLFVLHGANDPRVPVGEAEQIAEQAAEQGVPVEKLVFDDEGHGISKRENRIEAYTAVVEFLDDHV | not soluble
15 | NIVLTQSPASLAVSLGQRATISCRANESVYSYGDSFMHWYQQKPGQPPKLLIYLASNLASGVPARFSGSGSRTDFTLTIDPVETDDAATYYCQQNNEDPWTFGGGTKLEIKRGDAAPTVSIFPPSSEQLTSGGASVVCFLNNFYPKDANVAWKIDGSERQNGVLNSWTDQDSKDSTYSMSSTLTLTKDEYERHNSYTCEATHKTSTSPIVKSFNR | soluble
16 | NIYLDKRITKQATQFLEAARAIDSREHLISGYRSVAYQEKLFNSYVTQEMTSNPNLTRGQAEKLVKTYSQPAGASEHQTGLAMDMSTVDSLNESDPRVVSQLKKIAPQYGFVLRFPDGKTAETGVGYEDWHYRYVGV | not soluble
17 | NKDWSYRIGFNLYDSQSEITKYNNETNLLGDKIYRKGMKMGEIWGYVTDRFYTEDDFNADGTLKPGIPIPKGAGKVFPGDVLYKNFDDDTETIWSGEGTADNPGDQRIIGNSTPRFHYGITAGISWKGLDLSIFLRGVGKRDYWRTDQIAWPTGGWGSLFKETLNFWTPTNTNAYYPRVYSNDGVNTSYNHWKQSKYLANASYLKLQNITLSYTLPKVWSQRLYFDDVKVFFSGENLYTWDHLPEGLETDMLSKGAWEYPFMRKFSFGINVTF | not soluble
18 | NKLAQKYDHQREQELREWIEGVTGRRIGNNFMDGLKDGIILCEFINKLQPGSVKKINESTQNWHQLENIGNFIKAITKYGVKPHDIFEANDLFENTNHTQVQSTLLALASMAKTKGNKVNVGV | soluble
19 | NKSDMNHFMQVLRYLDPIHYLKATNDNGFPMSRMYSNQTVTIGGTITQPLPFKPDGENNVKLQRVVAKLDVNIVEGVENLQKIELCNANVHYRLVPNQSEPIQFYGPVELRRVGTTNQWLGYMPEAIVESTKWWGNTGNAENKPINFFRLTTRGGLVYDVPIITHEGAIPGGQYLPFAKGLLADKPSYTVYRNRHYIYRIKTLPDKIEVKYSICDWNIVTNDTYMGYGYNVGVDEQGNVTITNTMQNCDPHVVRLVAKNGAYFGSQPTDTSVEFAELANGASQTFKVNKDAVAVGSAYLEVYYNPDPNATGVVPDKVFIKK | not soluble
20 | NLKVEFYNSNPSDTTNSINPQFKVTNTGSSAIDLSKLTLRYYYTVDGQKDQTFWCDHAAIIGSNGSYNGITSNVKGTFVKMSSSTNNADTYLEISFTGGTLEPGAHVQIQGRFAKNDWSNYTQSNDYSFKSASQFVEWDQVTAYLNGVLVWGKEP | soluble
21 | NNMHHLAVVGARDSTSYTQQSLEFLLSNDKSKYLTIVSGLAQGADAMAHQIALKYNLPTIAVLAFGHQTHYPKSTLALRNKIEEKGLVISEYPPHTPIAKYRFPERNRIISGLSKGVLITEAKEQSGSHITIDFALEQNRNVYVLPGSMFNPMTKGNLLRIQEGAKVVLNANDIFEDYYI | not soluble
22 | NTLTVKMNDALSSGTGENIGEITVSETPYGLLFTPHLNGLTPGIHGFHVHTNPSCMPGMKDGKEVPALMAGGHLDPEKTGKHLGPYNDKGHLGDLPGLVVNADGTATYPLLAPRLKSLSELKGHSLMIHKGGDNYSDKPAPLGGGGARFACGVIEK | soluble
23 | PDLLIELFSEEIPARMQARAREDLKKLVTDGLVEAGLTYASAGAFSTPRRLVLSVEGLSAESPTLREERKGPKADAPAAAIEGFLRSTGLTRDQLETREDKKGAVLFAVVEKPGRRAPDIVAEVLERTIRTFPWPKSMRWGTGSLRWVRPLHSILCLLSDEAGSQVVPVTVDQVTAVNTTEGHRFMAPGRFAVTGFDDYRAKLQRALVMLDAAEREQAIWHEATTQAFAQGLEVVPDAGLLAEVAGLVEWPVVLMGPIGEEFLGLPPEVLQTSMREHQKFFSVRNPATGRIEKFVTVANRETADHGATILKGNAKVLSARLSDASFFWENDRRTVQTVGLEGMAAGLAHVTFHNKLGSQADRIARIEALAREIAPLVGASPDLAAEAARVAKADLQSAMVGEFPELQGTMGSYYARAAGLPEPVALACKAHYQPLGPSDAVPTDPVSVAVALADKIDTLTGFWAIDEKPTGSKDPFALRRAALGVVRLLLMNGLRLSLLNQVRFAHGCLAEQFNSRFNFFVQIREEPKEAVNIGVGHRYPEVVSDQCTSILMGYVENPVESVASGKFTIDGRAVGTKP | not soluble
